Data as given in article PMC10749193 (Frontiers in Immunology, 2023).

Target: SARS-CoV-2 S (Wuhan)-His (1–1273 aa) expressed in HEK293T cells (SARS-CoV-2 Wuhan, UniProt P0DTC2)
Test: western blot
Conditions: one partner purified

B1: anti-S2 monoclonal antibody 4A5 (antibody, V domains shown)
VH: QVKLEQSGPGILQPSQTLSLTCSFSGFSLSTSGMGVSWIRQSSGKGLEWLTHIYWDDDKRYNPSLKSRLTISKDTSRNQVFLKITSVDTADTATYYCARRRMITGLYYAMDYWGQGTSVTVSS
VL: DIVMTQSTLSLPVSFGDQVSISCRSSQSLANSYGITYLSWYLHKPGQSPQLLIYGISNRFSGVPDRFSGSGSGTDFTLKISTIKPEDLGMYYCLQGTHQPWTFGGGTKLEIK
  binding result: binds
